Experimental data from WO2018084236A1 (dated 2018).

Target: T1, peptide fragment of the human prorenin receptor protein, 200-213th polypeptide (SEQ ID NO: 37) (human)
T1 construct: For immunisation, KLH was linked to its amino terminus; also called peptide fragment of the prorenin receptor
T1 peptide: HKHLAKDHSPDLYS
Test: BLI (BLItz, Pall ForteBio), antibody in hybridoma culture liquid against the prorenin receptor peptide fragment

binding result: binds
B1: anti-prorenin receptor monoclonal antibody 8_6 (antibody, IgM, V domains shown)
VH: VQLVESGGGLVQPGRSLKLSCAASGFTFSNYYMAWVRHAPKKGLEWVATISTSGSRTYYPDSVKGRFTISRDNAKSSLYLQMNSLKSEDTATYYCARHEFGAFDYWGQGVTV
VL: DIVMTQSPSSLAVSAGETVTINCKSSQSLLYSGNQKNYLAWYQQKPGQSPKLLIYWASTRQSGVPDRFIGSGSGTDFTLTISSVQAEDLAIYYCQQYYDTPYTFGAGTK
notes: Rat hybridoma antibody, isotype IgM; Hybridoma culture liquid was tested in the BLI screen
